Test results from article PMC7077807.

Molecular target: Synaptotagmin II, P29101
Assay: BLI

Synaptotagmin II, P29101, sequence (P29101 40-60): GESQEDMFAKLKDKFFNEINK

B1: BoNT/B HC HC, P10844 (protein)
chain: SEILNNIILNLRYKDNNLIDLSGYGAKVEVYDGVELNDKNQFKLTSSANSKIRVTQNQNIIFNSVFLDFSVSFWIRIPKYKNDGIQNYIHNEYTIINCMKNNSGWKISIRGNRIIWTLIDINGKTKSVFFEYNIREDISEYINRWFFVTITNNLNNAKIYINGKLESNTDIKDIREVIANGEIIFKLDGDIDRTQFIWMKYFSIFNTELSQSNIEERYKIQSYSEYLKDFWGNPLMYNKEYYMFNAGNKNSYIKLKKDSPVGEILTRSKYNQNSKYINYRDLYIGEKFIIRRKSNSQSINDDIVRKEDYIYLDFFNLNQEWRVYTYKYFKKEEEKLFLAPISDSDEFYNTIQIKEYDEQPTYSCQLLFKKDEESTDEIGLIGIHRFYESGIVFEEYKDYFCISKWYLKEVKRKPYNLKLGCNWQFIPKDEGWTE
  Kd: 51 µM
